Reference: patent publication US8133978 (GlaxoSmithKline, dated 2012)

Experiments:
[1] = biological target: T1, Human interleukin-18 (recombinant human IL-18) (human, UniProt Q14116 37-193); assay: ELISA, human IL-18 captured by 16D10, antibody titrated
T1 construct: also called hIL-18
T1 sequence: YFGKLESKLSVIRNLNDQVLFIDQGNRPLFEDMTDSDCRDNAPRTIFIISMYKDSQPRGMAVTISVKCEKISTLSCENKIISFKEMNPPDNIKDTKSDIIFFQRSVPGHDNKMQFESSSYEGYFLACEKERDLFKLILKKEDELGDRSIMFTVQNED
Description: ELISA with all nine humanised variants was carried out at least 6 times using various batches of purified antibody preparation. FIGS. 4A-4C show representative data from one experiment which generated the EC50 value ranking illustrated in Table 7. Human IL-18 was immobilized on Nunc Maxisorp 96-well plates using 2.5 µg/ml of 16D10 (non-neutralising mouse monoclonal antibody) to capture 5 ng/ml of recombinant human IL-18. Anti-IL-18 humanised antibodies were added at various dilutions. Bound humanised antibodies were detected using anti-human IgG Fc specific peroxidase conjugate (Sigma A0170).

Rhesus IL-18 [2] = biological target: T2, Rhesus IL-18 (rhesus (rhesus/cynomolgus)); assay: SPR, Biacore 3000, antibody captured on Protein A, 25 C
T2 construct: also called Rhesus/Cynomolgus IL-18; rhesus/cynomolgus IL-18
Description: (§1) Biacore™ kinetic analysis of the humanised 2C10 antibodies was carried out on a Biacore™ 3000 instrument using Protein A capture of the antibodies in HBS-EP buffer (Biacore™). Briefly, Protein A was immobilised on a CM5 chip by primary amine coupling, using manufacturers recommended protocol, to densities around 2000-4000 resonance units (RU's). Humanised antibody was then passed over the Protein A surface and captured to levels of around 200-500 RU's, after a period of stabilisation, IL-18 (human or Rhesus) was passed over the captured antibody surface at defined concentrations and binding sensorgrams were obtained. […] All curves were double referenced against a buffer injection instead of IL-18 and the data was fitted to the 1:1 binding model using the global fit parameters in BiaEval 4.1. Off-rate ranking experiments were set up using the same Protein A capture method, however, only a single concentration of IL-18 was used (10 nM). Whilst the data was fitted using the same binding model as the kinetic analysis, since only one concentration of analyte was used on the off-rate is reported, this value is useful for ranking rather than giving an exact kinetic measurement and was used as a way of selecting which antibodies would be further investigated.
(§2) Based upon these observations selected antibodies were investigated in greater detail for binding to human and Rhesus IL-18 at 37° C. The data shown in Table 4b for human IL-18 is the mean (and standard deviation) of six separate determinations.

[3] = biological target: T1, Human interleukin-18 (recombinant human …); assay: as above
Description: as §1, with “investigated. […]” for “investigated.”

[4] = biological target: T1, Human interleukin-18 (recombinant human …); assay: SPR, Biacore T100, antibody captured on Protein A, 37 C
Description: (§3) The methodology was basically the same as for the method used in Example 4a above; Protein A was immobilised on a CM5 chip at densities of between 2000-6000 RU's by primary amine coupling. Runs were carried out in HBS-EP (Biacore™). The anti-IL-18 antibodies were captured to densities of between 100-500 RUs, human IL-18 was passed over this captured surface at concentrations between 16-0.0625 nM, with 0 nM concentration (i.e., a buffer only injection of captured antibody) used for double referencing. Regeneration after each injection of IL-18 was by mild acidic elution using two injections of 10 mM glycine, pH1.5. […] The binding curves obtained were analysed using the analysis software inherent to the T100 machine using the 1:1 model of binding. Runs were carried out at the temperatures indicated.
(§4) This experiment was carried out using the above method at various temperatures. […] Table 5 details the kinetic values used to create these figures.

[5] = biological target: T1, Human interleukin-18 (recombinant human …); assay: SPR, Biacore T100, Protein A capture, 25 C, mean n = 4
Description: as §3
(§5) These experiments were carried out as described above. Table 6 details the kinetic parameters obtained. […] H1L2 has a better on-rate (ka) than H1L1.

[6] = biological target: T1, Human interleukin-18 (recombinant human …); assay: ELISA, antibody on plate, human IL-18 captured, detected by 16D10; room temperature, in serum
Description: (§6) ELISA was carried out with the three Humanised H1 variants; H1L1, H1L2 and H1L3 to assess binding to human IL-18 at room temperature and at 37° C. in both human serum and in block solution (PBS 0.05% TWEEN with 1% BSA (w/v)). The Humanised antibody variants were immobilised on Nunc Maxisorp 96-well plates at 2.5 µg/ml. Capture of 5 ng/ml of recombinant human IL-18 was carried out either at room temperature or 37° C. in human serum or block solution. Anti-IL-18 mouse monoclonal antibody 16D10 was added. The bound mouse antibody was detected using anti-mouse kappa peroxidase conjugate (Serotec MCA 1291P). Representative EC50 values generated from the study data are illustrated in Table 9.

[7] = biological target: T1, Human interleukin-18 (recombinant human …); assay: SPR, Biacore T100, antibody captured on Protein A, 20 C
Description: as §3, §4

[8] = biological target: T1, Human interleukin-18 (recombinant human …); assay: SPR, Biacore T100, antibody captured on Protein A, 25 C
Description: as §3, §4

[9] = biological target: T1, Human interleukin-18 (recombinant human …); assay: ELISA, antibody on plate, human IL-18 captured, detected by 16D10; room temperature, blocking buffer
Description: as §6

[10] = biological target: T1, Human interleukin-18 (recombinant human …); assay: ELISA, antibody on plate, human IL-18 captured, detected by 16D10; 37 C, blocking buffer
Description: as §6

[11] = biological target: T1, Human interleukin-18 (recombinant human …); assay: SPR, Biacore T100, antibody captured on Protein A, 32 C
Description: as §3, §4

[12] = biological target: T1, Human interleukin-18 (recombinant human …); assay: cell-based or functional assay
[13] = biological target: T1, Human interleukin-18 (recombinant human …); assay: SPR, Biacore T100, Protein A capture, 37 C, mean n = 6
Description: as §3, §5

[14] = biological target: T1, Human interleukin-18 (recombinant human …); assay: ELISA, antibody on plate, human IL-18 captured, detected by 16D10; 37 C, in serum
Description: as §6

[15] = biological target: T1, Human interleukin-18 (recombinant human …); assay: SPR, Biacore T100, antibody captured on Protein A, 15 C
[16] = biological target: T1, Human interleukin-18 (recombinant human …); assay: SPR, Biacore 3000, antibody captured on Protein A, 37 C
Description: as §1, §2

Rhesus IL-18 [17] = biological target: T2, Rhesus IL-18; assay: as above
Description: as §1, §2

Rhesus IL-18 [18] = biological target: T2, Rhesus IL-18; assay: Rhesus IL18 binding ELISA, antibody titrated, OD 490 nm

EC50 [1]	Kd (Rhesus IL-18 [2])	Kd [3]	Binder	also measured
0.01 µg/mL	0.38 nM	0.0332 nM	H1L1 humanised anti-IL-18 antibody (antibody, human IgG1, kappa, V domains shown, Human IgG1 / kappa) VH: QVQLVQSGAEVKKPGASVKVSCKVSGEISTGYYFHWVRQAPGKGLEWMGRIDPEDDSTKYAERFKDRVTMTEDTSTDTAYMELSSLRSEDTAVYYCTTWRIYRDSSGRPFYVMDAWGQGTLVTVSS VL: DIQMTQSPSSVSASVGDRVTITCLASEDIYTYLTWYQQKPGKAPKLLIYGANKLQDGVPSRFSGSGSGTDFTLTISSLQPEDFATYYCLQGSKFPLTFGQGTKLEIKR	Kd [4]: 0.0533 nM; Kd [5]: 0.0331 nM; EC50 [6]: 0.0102 µg/mL; Kd [7]: 0.0237 nM; Kd [8]: 0.0311 nM; EC50 [9]: 3.31 ng/mL; EC50 [10]: 3.43 ng/mL; Kd [11]: 0.0472 nM; % change vs 2C10 (IC50, KG-1 bioassay) [12]: 269%; Kd [13]: 0.0943 nM; EC50 [14]: 0.0121 µg/mL; Kd [15]: 0.0201 nM
0.008 µg/mL	0.0596 nM	0.0165 nM	H3L2 humanised anti-IL-18 antibody (antibody, human IgG1, kappa, V domains shown, Human IgG1 / kappa) VH: QVQLVQSGAEVKKPGASVKVSCKVSGEISTGYYFHFVRRRPGKGLEWMGRIDPEDDSTKYAERFKDRVTMTADTSTDTAYMELSSLRSEDTATYFCTTWRIYRDSSGRPFYVMDAWGQGTLVTVSS VL: DIQMTQSPSSVSASVGDRVTITCLASEDIYTYLTWYQQKPGKAPKLLIYGANKLQDGVPSRFSGSGSGTDYTLTISSLQPEDFATYYCLQGSKFPLTFGQGTKLEIKR	Kd [16]: 0.105 nM; Kd (Rhesus IL-18 [17]): 0.0643 nM

Second part, the binder before the results:

Binder	EC50 [1]	Kd (Rhesus IL-18 [2])	Kd [3]	also measured
H2L2 humanised anti-IL-18 antibody (antibody, human IgG1, kappa, V domains shown, Human IgG1 / kappa) VH: QVQLVQSGAEVKKPGASVKVSCKVSGEISTGYYFHWVRRRPGKGLEWMGRIDPEDDSTKYAERFKDRVTMTEDTSTDTAYMELSSLRSEDTAVYYCTTWRIYRDSSGRPFYVMDAWGQGTLVTVSS VL: DIQMTQSPSSVSASVGDRVTITCLASEDIYTYLTWYQQKPGKAPKLLIYGANKLQDGVPSRFSGSGSGTDYTLTISSLQPEDFATYYCLQGSKFPLTFGQGTKLEIKR	0.012 µg/mL	0.104 nM	0.0201 nM	
H3L1 humanised anti-IL-18 antibody (antibody, human IgG1, kappa, V domains shown, Human IgG1 / kappa) VH: QVQLVQSGAEVKKPGASVKVSCKVSGEISTGYYFHFVRRRPGKGLEWMGRIDPEDDSTKYAERFKDRVTMTADTSTDTAYMELSSLRSEDTATYFCTTWRIYRDSSGRPFYVMDAWGQGTLVTVSS VL: DIQMTQSPSSVSASVGDRVTITCLASEDIYTYLTWYQQKPGKAPKLLIYGANKLQDGVPSRFSGSGSGTDFTLTISSLQPEDFATYYCLQGSKFPLTFGQGTKLEIKR	0.013 µg/mL	0.149 nM	0.0194 nM	
H2L3 humanised anti-IL-18 antibody (antibody, human IgG1, kappa, V domains shown, Human IgG1 / kappa) VH: QVQLVQSGAEVKKPGASVKVSCKVSGEISTGYYFHWVRRRPGKGLEWMGRIDPEDDSTKYAERFKDRVTMTEDTSTDTAYMELSSLRSEDTAVYYCTTWRIYRDSSGRPFYVMDAWGQGTLVTVSS VL: DIQMTQSPSSVSASVGDRVTITCLASEDIYTYLTWYQQKPGKAPQLLIYGANKLQDGVPSRFSGSGSGTDYTLTISSLQPEDEGDYYCLQGSKFPLTFGQGTKLEIKR	0.016 µg/mL		0.0238 nM	
H2L1 humanised anti-IL-18 antibody (antibody, human IgG1, kappa, V domains shown, Human IgG1 / kappa) VH: QVQLVQSGAEVKKPGASVKVSCKVSGEISTGYYFHWVRRRPGKGLEWMGRIDPEDDSTKYAERFKDRVTMTEDTSTDTAYMELSSLRSEDTAVYYCTTWRIYRDSSGRPFYVMDAWGQGTLVTVSS VL: DIQMTQSPSSVSASVGDRVTITCLASEDIYTYLTWYQQKPGKAPKLLIYGANKLQDGVPSRFSGSGSGTDFTLTISSLQPEDFATYYCLQGSKFPLTFGQGTKLEIKR	0.021 µg/mL	0.627 nM	0.0335 nM	
H3L3 humanised anti-IL-18 antibody (antibody, human IgG1, kappa, V domains shown, Human IgG1 / kappa) VH: QVQLVQSGAEVKKPGASVKVSCKVSGEISTGYYFHFVRRRPGKGLEWMGRIDPEDDSTKYAERFKDRVTMTADTSTDTAYMELSSLRSEDTATYFCTTWRIYRDSSGRPFYVMDAWGQGTLVTVSS VL: DIQMTQSPSSVSASVGDRVTITCLASEDIYTYLTWYQQKPGKAPQLLIYGANKLQDGVPSRFSGSGSGTDYTLTISSLQPEDEGDYYCLQGSKFPLTFGQGTKLEIKR	0.009 µg/mL		0.0242 nM	EC50 (read off the curve) (Rhesus IL-18 [18]): ~0.03 µg/mL; Kd [16]: 0.11 nM; Kd (Rhesus IL-18 [17]): 0.0756 nM
